Consider 2 molecules from paper PMC11218660, “Functional dissection of human cardiac enhancers and noncoding de novo variants in congenital heart disease”.

The data set deals with T1, SRF (human, UniProt P11831 1-508).
T1 sequence: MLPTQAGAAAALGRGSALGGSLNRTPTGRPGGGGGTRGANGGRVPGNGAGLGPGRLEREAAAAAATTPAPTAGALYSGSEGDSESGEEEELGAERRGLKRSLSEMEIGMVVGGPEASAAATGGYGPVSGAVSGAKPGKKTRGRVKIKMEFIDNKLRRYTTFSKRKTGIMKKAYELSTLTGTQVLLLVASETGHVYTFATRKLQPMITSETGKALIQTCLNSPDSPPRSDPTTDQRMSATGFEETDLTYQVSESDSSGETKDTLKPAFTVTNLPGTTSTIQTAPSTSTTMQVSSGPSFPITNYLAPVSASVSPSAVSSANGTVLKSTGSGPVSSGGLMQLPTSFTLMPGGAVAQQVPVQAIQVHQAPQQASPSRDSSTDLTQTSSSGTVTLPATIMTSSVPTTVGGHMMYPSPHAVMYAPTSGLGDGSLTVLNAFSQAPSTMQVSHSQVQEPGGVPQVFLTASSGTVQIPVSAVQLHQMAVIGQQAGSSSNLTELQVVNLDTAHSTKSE
The experiment in a line: EMSA; EMSA: 150 mM KCl, 0.1 mM DTT, 0.1 mM EDTA, 10 mM Tris pH 7.4; 500-800 fmol probe, 0.1-2.0 ug protein in 15-20 ul; room temperature 20 min; 6% native PAGE, SYBR. Conditions: protein: recombinant; chain copies: 2; blunt. For orientation: Mobility shift assays separate free from complexed probe on a gel.

B1: GLB1L3-CRE REF (dsDNA)
DNA 1: GAGGGAGGGGAGCGATCTCTCCTTTCTTGGAGAAAATAGTATCGC
DNA 2: GCGATACTATTTTCTCCAAGAAAGGAGAGATCGCTCCCCTCCCTC
In the case of B1, the binding result is “binds”.

B2: ADAMTS6-CRE ALT (dsDNA)
DNA 1: AATGCATCTGCTTGCTTCATTTGGCAGATTCCTCAAGAGT
DNA 2: ACTCTTGAGGAATCTGCCAAATGAAGCAAGCAGATGCATT
As for B2, the binding result was “binds”.
